Reference: patent US20210283252A1 (POLPHARMA BIOLOGICS S A, published 2021)

Legend:
α4β7 integrin [1] = biological target: T1, α4β7 integrin (UniProt P13612 34-970; P26010 20-723, limits assumed); assay: MadCAM-1 competitive ELISA; coated α4β7 integrin, Fc-tagged MadCAM-1 as competitor, bound natalizumab detected; 24 batches, n=3
Procedure: (§1) In still another alternative one can measure MadCAM-1 competitive binding by ELISA. The aim of this assay is to test the ability of natalizumab to inhibit interaction of α₄β₇ integrin with its cognate receptor—MadCAM-1 protein in a dose-dependent manner. Constant amount of the coated α₄β₇ integrin is incubated with serial dilutions of natalizumab in the presence of Fc-tagged MadCAM-1 receptor. Natalizumab and MadCAM-1 receptor now compete for binding to solid-phase associated α₄β₇ integrin. The higher the natalizumab concentration the more MadCAM-1 is inhibited from binding to α₄β₇ integrin. The lowest signal result is observed when no natalizumab is present. […] is subsequently detected with a POD-conjugated anti-human IgG antibody and a TMB-substrate reaction at the end of the assay. Data are analyzed with 4PL fitting model. Final result is expressed as a Relative Potency (REP) of tested sample in relation to reference standard. The method variability was determined at the level of 8% coefficient variation (CV) of intermediate precision within the qualification exercise. Additionally accuracy, linearity and specificity were tested.

α4β7 integrin [2] = biological target: T1, α4β7 integrin; assay: MadCAM-1 competitive ELISA; coated α4β7 integrin, Fc-tagged MadCAM-1 as competitor; lowest of 24 batches
Procedure: as §1

HIS-tagged α4β1 integrin [3] = biological target: T2, HIS-tagged α4β1 integrin (UniProt P13612 34-977; P05556 21-728, limits assumed); assay: VCAM-1 competitive ELISA; coated VCAM-1 as competitor, HIS-tagged α4β1 integrin in solution; lowest of 26 batches
T2 construct: Soluble, HIS-tagged
Procedure: (§2) Alternatively, one can also measure VCAM-1 competitive binding by ELISA. The aim of this assay is to test the ability of natalizumab to inhibit interaction of α₄β₁ integrin with its cognate receptor VCAM-1 protein in a dose-dependent manner. Constant amount of the coated VCAM-1 protein is incubated with serial dilutions of natalizumab in the presence of HIS-tagged α₄β₁ integrin. Solid-phase associated VCAM-1 and soluble natalizumab now compete for binding to α₄β₁, integrin. The higher the natalizumab concentration the more α4β1 integrin is inhibited from binding to VCAM-1. The highest signal result is observed when no natalizumab is present. Bound HIS-tagged α₄β₁ integrin is subsequently detected with a biotinylated anti-HIS-tag antibody, POD-conjugated Streptavidin and a TMB-substrate reaction at the end of the assay. Data are analyzed with 4PL fitting model. Final result is expressed as a Relative Potency (REP) of tested sample in relation to reference standard. The method variability was determined at the level of 7% coefficient variation (CV) of intermediate precision within the qualification exercise. Additionally accuracy, linearity and specificity were tested.

HIS-tagged α4β1 integrin [4] = biological target: T2, HIS-tagged α4β1 integrin; assay: VCAM-1 competitive ELISA; coated VCAM-1 as competitor, HIS-tagged α4β1 integrin in solution; 26 batches, n=3
Procedure: as §2

α4β7 integrin [5] = biological target: T1, α4β7 integrin; assay: MadCAM-1 competitive ELISA; coated α4β7 integrin, Fc-tagged MadCAM-1 as competitor; highest of 24 batches
Procedure: as §1

HIS-tagged α4β1 integrin [6] = biological target: T2, HIS-tagged α4β1 integrin; assay: VCAM-1 competitive ELISA; coated VCAM-1 as competitor, HIS-tagged α4β1 integrin in solution; highest of 26 batches
Procedure: as §2

Relative Potency (REP), average (α4β7 integrin [1]): 0.995 REP (relative to reference standard)
Relative Potency (REP), min (α4β7 integrin [2]): 0.83 REP (relative to reference standard)
Relative Potency (REP), min (HIS-tagged α4β1 integrin [3]): 0.916 REP (relative to reference standard)
Relative Potency (REP), average (HIS-tagged α4β1 integrin [4]): 1.04 REP (relative to reference standard)
Relative Potency (REP), max (α4β7 integrin [5]): 1.17 REP (relative to reference standard)
Relative Potency (REP), max (HIS-tagged α4β1 integrin [6]): 1.2 REP (relative to reference standard)
B1: Natalizumab reference product (Referent batches) (antibody, human IgG4, kappa, V domains shown)
VH: QVQLVQSGAEVKKPGASVKVSCKASGFNIKDTYIHWVRQAPGQRLEWMGRIDPANGYTKYDPKFQGRVTITADTSASTAYMELSSLRSEDTAVYYCAREGYYGNYGVYAMDYWGQGTLVTVSS
VL: DIQMTQSPSSLSASVGDRVTITCKTSQDINKYMAWYQQTPGKAPRLLIHYTSALQPGIPSRFSGSGSGRDYTFTISSLQPEDIATYYCLQYDNLWTFGQGTKVEIKR
